Drawing on the Human Domainome abundance scans (Beltran et al. 2025), this text covers abundance fitness for 33 variants.

To fix the notation:
B1: POU domain, class 4, transcription factor 1, residues 266 to 347; numbered along this chain, Q01851 (parent)
chain: RELEAFAERFKQRRIKLGVTQADVGSALANLKIPGVGSLSQSTICRFESLTLSHNNMIALKPILQAWLEEAEGAQREKMNKP

± gives the uncertainty stated by the source.

Variants of B1 are the subject of the series. As to the kind of experiment: abundance fitness (aPCA) (normalised: wild type 0, dead -1); higher = more abundant; growth selection in yeast, the domain comes from the species named. The note with it: Homo sapiens.
As to RELEAFAERFKQRRIKLGVTQADVGSALANLKIPGVGSLSQSTICRFESITLSHNNMIALKPILQAWLEEAEGAQREKMNKP [L50I], the abundance fitness is -0.13 ± 0.043. The value for RELEAFAERFKQRRIKLGVTQADVGSALANLKIPGVGSLSQSTICRFESVTLSHNNMIALKPILQAWLEEAEGAQREKMNKP [L50V] was -0.006 ± 0.033; that for RELEAFAERFKQRRIKLGVTQADVGSALANLKIPGVGSLSQSTICRFESQTLSHNNMIALKPILQAWLEEAEGAQREKMNKP [L50Q] was -0.01 ± 0.056; that for RELEAFAERFKQRRIKLGVTQADVGSALANLKIPGVGSLSQSTICRFESTTLSHNNMIALKPILQAWLEEAEGAQREKMNKP [L50T] was -0.062 ± 0.039. For RELEAFAERFKQRRIKLGVTQADVGSALANLKIPGVGSLSQSTICRFESETLSHNNMIALKPILQAWLEEAEGAQREKMNKP [L50E] the value was -0.26 ± 0.057; for RELEAFAERFKQRRIKLGVTQADVGSALANLKIPGVGSLSQSTICRFESHTLSHNNMIALKPILQAWLEEAEGAQREKMNKP [L50H], 0.044 ± 0.045; for RELEAFAERFKQRRIKLGVTQADVGSALANLKIPGVGSLSQSTICRFESDTLSHNNMIALKPILQAWLEEAEGAQREKMNKP [L50D], -0.425 ± 0.053. The value for RELEAFAERFKQRRIKLGVTQADVGSALANLKIPGVGSLSQSTICRFESCTLSHNNMIALKPILQAWLEEAEGAQREKMNKP [L50C] was 0.095 ± 0.046; that for RELEAFAERFKQRRIKLGVTQADVGSALANLKIPGVGSLSQSTICRFESRTLSHNNMIALKPILQAWLEEAEGAQREKMNKP [L50R] was 0.012 ± 0.036. On to RELEAFAERFKQRRIKLGVTQADVGSALANLKIPGVGSLSQSTICRFESNTLSHNNMIALKPILQAWLEEAEGAQREKMNKP [L50N], for which the abundance fitness is -0.032 ± 0.04. The value for RELEAFAERFKQRRIKLGVTQADVGSALANLKIPGVGSLSQSTICRFESSTLSHNNMIALKPILQAWLEEAEGAQREKMNKP [L50S] was 0.018 ± 0.033. Regarding RELEAFAERFKQRRIKLGVTQADVGSALANLKIPGVGSLSQSTICRFESMTLSHNNMIALKPILQAWLEEAEGAQREKMNKP [L50M], the abundance fitness is 0.055 ± 0.045.

For RELEAFAERFKQRRIKLGVTQADVGSALANLKIPGVGSLSQSTICRFESKTLSHNNMIALKPILQAWLEEAEGAQREKMNKP [L50K], the abundance fitness worked out at 0.029 ± 0.049. For RELEAFAERFKQRRIKLGVTQADVGSALANLKIPGVGSLSQSTICRFESGTLSHNNMIALKPILQAWLEEAEGAQREKMNKP [L50G], the abundance fitness stood at 0.049 ± 0.038. The value for RELEAFAERFKQRRIKLGVTQADVGSALANLKIPGVGSLSQSTICRFESYTLSHNNMIALKPILQAWLEEAEGAQREKMNKP [L50Y] was 0.008 ± 0.04; that for RELEAFAERFKQRRIKLGVTQADVGSALANLKIPGVGSLSQSTICRFESWTLSHNNMIALKPILQAWLEEAEGAQREKMNKP [L50W] was -0.233 ± 0.052. The value for RELEAFAERFKQRRIKLGVTQADVGSALANLKIPGVGSLSQSTICRFESATLSHNNMIALKPILQAWLEEAEGAQREKMNKP [L50A] was 0.031 ± 0.032. For RELEAFAERFKQRRIKLGVTQADVGSALANLKIPGVGSLSQSTICRFESFTLSHNNMIALKPILQAWLEEAEGAQREKMNKP [L50F] the value was 0.052 ± 0.042. For RELEAFAERFKQRRIKLGVTQADVGSALANLKIPGVGSLSQSTICRFPSLTLSHNNMIALKPILQAWLEEAEGAQREKMNKP [E48P], the abundance fitness was -0.856 ± 0.076. In the case of RELEAFAERFKQRRIKLGVTQADVGSALANLKIPGVGSLSQSTICRFTSLTLSHNNMIALKPILQAWLEEAEGAQREKMNKP [E48T], the abundance fitness was -0.954 ± 0.08.

Turning to RELEAFAERFKQRRIKLGVTQADVGSALANLKIPGVGSLSQSTICRFMSLTLSHNNMIALKPILQAWLEEAEGAQREKMNKP [E48M], the abundance fitness was -1.23 ± 0.19. The value for RELEAFAERFKQRRIKLGVTQADVGSALANLKIPGVGSLSQSTICRFVSLTLSHNNMIALKPILQAWLEEAEGAQREKMNKP [E48V] was -1.04 ± 0.072; that for RELEAFAERFKQRRIKLGVTQADVGSALANLKIPGVGSLSQSTICRFNSLTLSHNNMIALKPILQAWLEEAEGAQREKMNKP [E48N] was -0.973 ± 0.11; that for RELEAFAERFKQRRIKLGVTQADVGSALANLKIPGVGSLSQSTICRFYSLTLSHNNMIALKPILQAWLEEAEGAQREKMNKP [E48Y] was -1.05 ± 0.12. With RELEAFAERFKQRRIKLGVTQADVGSALANLKIPGVGSLSQSTICRFWSLTLSHNNMIALKPILQAWLEEAEGAQREKMNKP [E48W], the abundance fitness was -0.811 ± 0.078. The value for RELEAFAERFKQRRIKLGVTQADVGSALANLKIPGVGSLSQSTICRFSSLTLSHNNMIALKPILQAWLEEAEGAQREKMNKP [E48S] was -0.979 ± 0.063; that for RELEAFAERFKQRRIKLGVTQADVGSALANLKIPGVGSLSQSTICRFESLRLSHNNMIALKPILQAWLEEAEGAQREKMNKP [T51R] was -0.017 ± 0.035. For RELEAFAERFKQRRIKLGVTQADVGSALANLKIPGVGSLSQSTICRFESLLLSHNNMIALKPILQAWLEEAEGAQREKMNKP [T51L] the value was -0.022 ± 0.031; for RELEAFAERFKQRRIKLGVTQADVGSALANLKIPGVGSLSQSTICRFESLILSHNNMIALKPILQAWLEEAEGAQREKMNKP [T51I], -0.205 ± 0.041. For RELEAFAERFKQRRIKLGVTQADVGSALANLKIPGVGSLSQSTICRFESLELSHNNMIALKPILQAWLEEAEGAQREKMNKP [T51E] the value was 0.032 ± 0.07; for RELEAFAERFKQRRIKLGVTQADVGSALANLKIPGVGSLSQSTICRFESLMLSHNNMIALKPILQAWLEEAEGAQREKMNKP [T51M], -0.004 ± 0.044; for RELEAFAERFKQRRIKLGVTQADVGSALANLKIPGVGSLSQSTICRFESLWLSHNNMIALKPILQAWLEEAEGAQREKMNKP [T51W], -0.487 ± 0.065. For the variant RELEAFAERFKQRRIKLGVTQADVGSALANLKIPGVGSLSQSTICRFESLALSHNNMIALKPILQAWLEEAEGAQREKMNKP [T51A], the abundance fitness was -0.015 ± 0.034.
